Measured values from patent US20250011739, “ENGINEERED CAS PROTEIN AND USE THEREOF” (SHANDONG SHUNFENG BIOTECHNOLOGY CO.LTD., published 2025).

Tests used:
Assay in all cases: cell_activity; PAM ATG; GFP reporter in CHO cells
[1] = molecular target: T1, Cas12j19 E100K-S400R-L763R (E100K,S400R,L763R)
T1 chain: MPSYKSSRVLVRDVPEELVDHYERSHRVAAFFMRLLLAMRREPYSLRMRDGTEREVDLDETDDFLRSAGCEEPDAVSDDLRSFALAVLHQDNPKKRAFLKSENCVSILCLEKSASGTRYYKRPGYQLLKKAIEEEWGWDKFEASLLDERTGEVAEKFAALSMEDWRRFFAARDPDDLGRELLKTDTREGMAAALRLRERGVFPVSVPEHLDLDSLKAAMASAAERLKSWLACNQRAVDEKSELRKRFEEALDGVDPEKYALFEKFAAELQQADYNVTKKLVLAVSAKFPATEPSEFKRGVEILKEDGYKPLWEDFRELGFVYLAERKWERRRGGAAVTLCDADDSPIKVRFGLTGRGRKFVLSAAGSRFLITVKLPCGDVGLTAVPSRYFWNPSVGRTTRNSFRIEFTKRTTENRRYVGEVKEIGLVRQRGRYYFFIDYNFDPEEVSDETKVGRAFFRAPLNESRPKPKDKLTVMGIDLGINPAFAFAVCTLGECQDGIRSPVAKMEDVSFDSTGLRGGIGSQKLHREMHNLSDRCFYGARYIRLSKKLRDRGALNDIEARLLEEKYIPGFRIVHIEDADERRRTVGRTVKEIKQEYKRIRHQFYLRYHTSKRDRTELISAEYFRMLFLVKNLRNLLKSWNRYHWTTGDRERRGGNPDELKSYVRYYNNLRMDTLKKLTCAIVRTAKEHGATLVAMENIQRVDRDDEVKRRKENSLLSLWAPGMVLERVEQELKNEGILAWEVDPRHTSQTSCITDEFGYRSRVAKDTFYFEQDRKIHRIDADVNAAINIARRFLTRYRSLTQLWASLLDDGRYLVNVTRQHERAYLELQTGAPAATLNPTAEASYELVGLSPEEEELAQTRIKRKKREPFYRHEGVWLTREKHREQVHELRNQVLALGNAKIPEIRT
Text: (§1) With reference to (Yang, Yi, et al. “Highly efficient and rapid detection of the cleavage activity of Cas9/gRNA via a fluorescent reporter.” Applied biochemistry and biotechnology 180.4 (2016): 655-667.), a fluorescent reporter system for verification of Cas12j19 cleavage was constructed, where a fluorescent reporter vector carried an RFP and a non-luminous GFFP, and a Cas vector carried a CFP. A target FUT8-3: […] (SEQ ID NO: 28) on a GFFP sequence was selected for testing, where an underlined part was a PAM sequence. A DR sequence was […] (SEQ ID NO: 29). 48 h after a CHO cell was transfected, a proportion of GFP fluorescence in CFP and RFP fluorescence was determined by FCM to determine an editing efficiency.
(§2) In this example, in SEQ ID NO: 19, an amino acid 100 was mutated into K, an amino acid 400 was mutated into R, and an amino acid 763 was mutated into R to obtain a three site-mutated protein E100K-S400R-L763R; and in SEQ ID NO: 19, an amino acid 100 was mutated into K, an amino acid 400 was mutated into R, an amino acid 763 was mutated into R, and an amino acid 45 was mutated into T to obtain a four site-mutated protein E100K-S400R-L763R-S45T.

Cas12j19 WT = molecular target: T2, Cas12j19 WT
T2 chain: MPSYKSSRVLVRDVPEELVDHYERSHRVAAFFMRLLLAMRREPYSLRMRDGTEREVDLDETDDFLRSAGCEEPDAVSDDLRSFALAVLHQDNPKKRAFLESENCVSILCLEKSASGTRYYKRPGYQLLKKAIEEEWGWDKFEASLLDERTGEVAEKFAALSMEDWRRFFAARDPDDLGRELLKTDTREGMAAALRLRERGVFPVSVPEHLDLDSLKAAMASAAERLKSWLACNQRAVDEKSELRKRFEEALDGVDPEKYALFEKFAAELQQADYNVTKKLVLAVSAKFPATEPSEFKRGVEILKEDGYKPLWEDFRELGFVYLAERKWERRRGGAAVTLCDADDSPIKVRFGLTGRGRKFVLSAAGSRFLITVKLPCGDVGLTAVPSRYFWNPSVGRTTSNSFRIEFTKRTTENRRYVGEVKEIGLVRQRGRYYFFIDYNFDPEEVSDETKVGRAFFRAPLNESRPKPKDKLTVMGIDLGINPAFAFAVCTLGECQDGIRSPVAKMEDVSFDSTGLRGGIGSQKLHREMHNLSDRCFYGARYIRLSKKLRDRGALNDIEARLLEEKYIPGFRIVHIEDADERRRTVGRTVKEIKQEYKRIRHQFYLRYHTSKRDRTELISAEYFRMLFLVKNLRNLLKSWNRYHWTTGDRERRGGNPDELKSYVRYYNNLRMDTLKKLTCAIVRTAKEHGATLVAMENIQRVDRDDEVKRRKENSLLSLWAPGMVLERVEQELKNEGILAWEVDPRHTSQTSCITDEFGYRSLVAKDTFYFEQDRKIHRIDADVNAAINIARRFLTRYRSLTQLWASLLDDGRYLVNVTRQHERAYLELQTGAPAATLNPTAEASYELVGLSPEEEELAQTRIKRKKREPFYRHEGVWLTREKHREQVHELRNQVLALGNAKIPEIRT
Text: as §1, §2

enCas-SF02 (Cas12j19 …) = molecular target: T3, enCas-SF02 (Cas12j19 E100K-S400R-L763R-S45T) (E100K,S400R,L763R,S45T)
T3 chain: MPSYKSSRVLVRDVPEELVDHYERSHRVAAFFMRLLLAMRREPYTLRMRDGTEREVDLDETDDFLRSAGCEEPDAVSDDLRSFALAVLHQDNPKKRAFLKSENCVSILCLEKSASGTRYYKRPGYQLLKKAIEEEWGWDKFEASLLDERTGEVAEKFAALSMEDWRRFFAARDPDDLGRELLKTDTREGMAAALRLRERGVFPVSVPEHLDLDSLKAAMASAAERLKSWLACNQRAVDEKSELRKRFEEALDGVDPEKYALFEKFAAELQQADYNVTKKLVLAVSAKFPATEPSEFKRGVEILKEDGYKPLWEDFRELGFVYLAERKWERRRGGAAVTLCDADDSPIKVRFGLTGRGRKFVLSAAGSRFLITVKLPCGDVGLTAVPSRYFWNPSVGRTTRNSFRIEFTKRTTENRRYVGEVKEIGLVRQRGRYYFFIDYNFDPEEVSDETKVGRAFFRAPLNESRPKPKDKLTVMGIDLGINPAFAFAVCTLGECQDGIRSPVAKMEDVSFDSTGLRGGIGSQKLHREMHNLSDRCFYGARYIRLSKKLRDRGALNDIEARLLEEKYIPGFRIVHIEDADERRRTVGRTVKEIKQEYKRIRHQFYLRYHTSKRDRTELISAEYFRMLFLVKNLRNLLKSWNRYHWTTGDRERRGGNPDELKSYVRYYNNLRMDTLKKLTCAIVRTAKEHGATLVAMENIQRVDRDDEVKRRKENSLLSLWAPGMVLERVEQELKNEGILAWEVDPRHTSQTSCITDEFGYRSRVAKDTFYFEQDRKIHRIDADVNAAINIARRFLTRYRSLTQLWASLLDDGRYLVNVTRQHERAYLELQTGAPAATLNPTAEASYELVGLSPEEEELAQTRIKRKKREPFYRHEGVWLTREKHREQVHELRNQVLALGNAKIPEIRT
Text: as §1, §2

B1: Cas12j19 FUT8-3 guide (DR + spacer, order inferred) ; FUT8-3 target (ssRNA ; dsDNA)
RNA: GUGCUGCUGUCUCCCAGACGGGAGGCAGAACUGCACGAGGCUGUCUACAAUGGGGA
DNA 1: ATGGAGGCTGTCTACAATGGGGA
DNA 2: TCCCCATTGTAGACAGCCTCCAT
activity [1]: ~90% | activity (Cas12j19 WT): ~6% | activity (enCas-SF02 (Cas12j19 …)): ~90%
